The text below walks through data of PMC3643599.

Data set [1] addresses His-TDP (101-261) (human, UniProt Q13148 101-261). In words: lysine acetylation footprinting MS.
The target of data set [2] is GST-TDP (101-261) (human, UniProt Q13148 101-261). In words: CD titration.
GST-TDP (101-261), sequence (Q13148 101-261): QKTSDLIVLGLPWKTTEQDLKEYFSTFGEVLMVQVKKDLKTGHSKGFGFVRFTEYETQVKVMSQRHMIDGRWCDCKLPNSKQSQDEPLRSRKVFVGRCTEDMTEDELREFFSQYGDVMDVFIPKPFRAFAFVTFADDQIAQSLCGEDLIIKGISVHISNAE

His-TDP (101-261), sequence (Q13148 101-261): as above

For the molecule UGUGUGUGUGUG (ssRNA) [(UG)6], the binding result in data set [1] and in data set [2] was “binds” in each case.
